The subject of series [1] is K562 CRISPRi cells. Description: Perturb-seq pooled growth measurement (sgRNA counts, growth phenotype γ, relative activity). Format: cell-based, human. The note with it: sequencing read counts; for Perturb-seq pooled growth sgRNA counts, d5: 5 days of growth (day seven after transduction); for Perturb-seq pooled growth sgRNA counts, d10: 10 days of growth (day twelve after transduction); for Perturb-seq pooled growth sgRNA counts, T0: T0 = day two after transduction. From the text:
Finally, we sought to use intermediate-activity sgRNAs to explore relationships between expression levels of various genes and the resulting cellular phenotypes. To simultaneously measure gene expression levels and obtain rich phenotypes for a variety of sgRNA series, we used Perturb-seq, an experimental strategy that enables matched capture of the transcriptome and the identity of an expressed sgRNA for each individual cell in pools of cells (27, 31-33) (FIG. 12A). […] In addition to the single-cell transcriptomes, we measured bulk growth phenotypes conferred by sgRNAs in these cells.
To measure the growth rate defects conferred by each sgRNA for comparison with the transcriptional phenotypes, samples of 500,000 transduced cells were taken from the same transduced cell population used in the Perturb-seq experiment on days two, seven, and twelve after transduction. Genomic DNA was extracted using the Nucleospin Blood kit (Macherey-Nagel) and sgRNA amplicons were prepared as described previously and above (19), albeit with no genomic DNA digestion or gel purification, and sequenced on HiSeq 4000 as described above for the other screens. Growth phenotypes were calculated by comparing normalized sgRNA abundances at day seven and twelve to those at day two, as described above. […] Relative sgRNA activities measured at day seven (five days of growth) were used to assign sgRNA activities in further analysis.

The test system of series [2] is K562 CRISPRi cells. In words: Constant region variant library pooled growth screen, K562. The conditions noted are these: sgRNA constant region variants. Format: cell-based, human. In a few lines:
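K562 CRISPRi, duplicate transductions; puromycin 1 d 0.75 μg/mL then 1 d 0.85 μg/mL; >2000× coverage in spinner flasks; harvests at 4-8 d growth. Activity = phenotype ÷ phenotype with unmodified constant region.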

The mark [3] stands for this setting: activity relative to the un-modified constant region cr995.
Setting [4] is: activity relative to the original, un-modified constant region cr995.

32 molecules from US20220259593A1, “CONTROL OF MAMMALIAN GENE DOSAGE USING CRISPR” (The Regents of the University of California, priority 2019, published 2022) can be followed below.

Numbering of substitutions follows the chain as printed.

On to “ALDOA_+_30077139.23-P1P2_00: sgRNA targeting ALDOA, GGTCACCAGGACCCCTTCTG, SEQ ID NO: 156 (listed as DNA, chemistry not fully specified)”, for which, in the series on K562 CRISPRi cells [1], the “Perturb-seq pooled growth sgRNA counts, d5” value amounted to 4056; the “Perturb-seq pooled growth sgRNA counts, d10” value came out at 2781; the “Perturb-seq pooled growth sgRNA counts, T0” value is reported as 5280.

Regarding “ALDOA_+_30077139.23-P1P2_06: sgRNA targeting ALDOA, GGTCACCAGGATCCCTTCTG, SEQ ID NO: 157 (listed as DNA, chemistry not fully specified)”, in the series on K562 CRISPRi cells [1], the “Perturb-seq pooled growth sgRNA counts, d5” value was determined as 4831; the “Perturb-seq pooled growth sgRNA counts, d10” value is 3500; the “Perturb-seq pooled growth sgRNA counts, T0” value worked out at 6015.

Consider “ALDOA_+_30077139.23-P1P2_07: sgRNA targeting ALDOA, GGTCACCAGGCCCCCTTCTG, SEQ ID NO: 158 (listed as DNA, chemistry not fully specified)”, for which, in the series with K562 CRISPRi cells [1], the “Perturb-seq pooled growth sgRNA counts, d5” value was 4284; the “Perturb-seq pooled growth sgRNA counts, d10” value was 3028; the “Perturb-seq pooled growth sgRNA counts, T0” value is on record as 4830.

In the case of “ALDOA_+_30077139.23-P1P2_13: sgRNA targeting ALDOA, GGTCACCAGGACCCCTTTTG, SEQ ID NO: 160 (listed as DNA, chemistry not fully specified)”, in the series on K562 CRISPRi cells [1], the “Perturb-seq pooled growth sgRNA counts, d5” value amounted to 16944; the “Perturb-seq pooled growth sgRNA counts, d10” value is 26890; the “Perturb-seq pooled growth sgRNA counts, T0” value was determined as 6699.

Regarding “ALDOA_+_30077139.23-P1P2_14: sgRNA targeting ALDOA, GGTCACCAGGACCGCTTCTG, SEQ ID NO: 159 (listed as DNA, chemistry not fully specified)”, in the series with K562 CRISPRi cells [1], the “Perturb-seq pooled growth sgRNA counts, d5” value is 5347; the “Perturb-seq pooled growth sgRNA counts, d10” value stood at 6076; the “Perturb-seq pooled growth sgRNA counts, T0” value amounted to 3603.

B1: cr159 (nucleic acid)
guide: GTTTAAGAGCTAAGCTGGAAACAGCATAGCTAGTTTAAATAAGGCTAGTCCGTTATCAACTTGAAAAAGTGGCACCGAGTCGGTGCT
modifications: listed as DNA, chemistry not fully specified
The molecule B1 gave a Mean relative activity in the series with K562 CRISPRi cells [2] (setting [3]) of 0.9739.

B2: cr360 (nucleic acid)
guide: B1 guide with T31A, C75T, G83A
modifications: listed as DNA, chemistry not fully specified
In turn, B2 displayed a Mean relative activity with K562 CRISPRi cells [2] (setting [4]) of 1.066.

B3: cr287 (nucleic acid)
guide: B1 guide with T31A, A65T, G79C
modifications: listed as DNA, chemistry not fully specified
As for B3, in the series with K562 CRISPRi cells [2] (setting [3]), the Mean relative activity came to 0.9686.

B4: cr646 (nucleic acid)
guide: B1 guide with T31A, C60A, G69T, A74T, T84A
modifications: listed as DNA, chemistry not fully specified
Turning to B4, the Mean relative activity in the series on K562 CRISPRi cells [2] (setting [3]) was 0.962.

B5: cr644 (nucleic acid)
guide: B1 guide with A28T, T31A
modifications: listed as DNA, chemistry not fully specified
The molecule B5 gave a Mean relative activity in the series on K562 CRISPRi cells [2] (setting [3]) of 0.9694.

B6: cr267 (nucleic acid)
guide: B1 guide with G18C, T31A
modifications: listed as DNA, chemistry not fully specified
B6 came in with a Mean relative activity in the series on K562 CRISPRi cells [2] (setting [3]) of 0.9552.

B7: cr181 (nucleic acid)
guide: B1 guide with T31A, C45T, G48A, C60T, G69A, A74G, T84C
modifications: listed as DNA, chemistry not fully specified
B7 returned a Mean relative activity in the series with K562 CRISPRi cells [2] (setting [3]) of 0.9506.

B8: cr707 (nucleic acid)
guide: B1 guide with T31A, A78T
modifications: listed as DNA, chemistry not fully specified
As for B8, the Mean relative activity with K562 CRISPRi cells [2] (setting [3]) worked out at 0.9632.

B9: cr397 (nucleic acid)
guide: B1 guide with T31A, C60A, G69T
modifications: listed as DNA, chemistry not fully specified
As for B9, in the series with K562 CRISPRi cells [2] (setting [3]), the Mean relative activity stood at 0.9508.

B10: cr994 (nucleic acid)
guide: B1 guide with T31A, G79T
modifications: listed as DNA, chemistry not fully specified
Consider B10, for which the Mean relative activity with K562 CRISPRi cells [2] (setting [3]) was found to be 0.9671.

B11: cr264 (nucleic acid)
guide: B1 guide with T31A, A68T
modifications: listed as DNA, chemistry not fully specified
B11 registered a Mean relative activity in the series on K562 CRISPRi cells [2] (setting [3]) of 0.9513.

B12: cr102 (nucleic acid)
guide: B1 guide with T31A, C60T, G69A, C73A, G85T
modifications: listed as DNA, chemistry not fully specified
The molecule B12 showed a Mean relative activity in the series on K562 CRISPRi cells [2] (setting [3]) of 0.9651.

B13: cr205 (nucleic acid)
guide: B1 guide with T31A, C60T, G69A, C73G, G85C
modifications: listed as DNA, chemistry not fully specified
Regarding B13, the Mean relative activity with K562 CRISPRi cells [2] (setting [3]) stood at 0.9515.

B14: cr944 (nucleic acid)
guide: B1 guide with T31A, T62C, A67G, C73T, G77A, C81T, G85A
modifications: listed as DNA, chemistry not fully specified
As for B14, the Mean relative activity with K562 CRISPRi cells [2] (setting [4]) is recorded as 1.065.

B15: cr167 (nucleic acid)
guide: B1 guide with T31A, T61C
modifications: listed as DNA, chemistry not fully specified
Turning to B15, the Mean relative activity in the series with K562 CRISPRi cells [2] (setting [3]) is 0.9545.

B16: cr416 (nucleic acid)
guide: B1 guide with T31A, A74G, G77A, C81T, T84C
modifications: listed as DNA, chemistry not fully specified
In the series with K562 CRISPRi cells [2] (setting [3]), B16 gave a Mean relative activity of 0.9574.

B17: cr748 (nucleic acid)
guide: B1 guide with T31A, T62C, A65G, A67G
modifications: listed as DNA, chemistry not fully specified
B17 displayed a Mean relative activity in the series with K562 CRISPRi cells [2] (setting [4]) of 1.146.

B18: cr835 (nucleic acid)
guide: B1 guide with T31A, T84C
modifications: listed as DNA, chemistry not fully specified
For the molecule B18, the Mean relative activity in the series with K562 CRISPRi cells [2] (setting [3]) was found to be 0.9515.

B19: cr938 (nucleic acid)
guide: B1 guide with T31A, A47G
modifications: listed as DNA, chemistry not fully specified
Consider B19, for which the Mean relative activity in the series with K562 CRISPRi cells [2] (setting [3]) is recorded as 0.9596.

B20: cr825 (nucleic acid)
guide: B1 guide with T31A, A74T, C75G, G83C, T84A
modifications: listed as DNA, chemistry not fully specified
In the series on K562 CRISPRi cells [2] (setting [3]), B20 showed a Mean relative activity of 0.9691.

B21: cr800 (nucleic acid)
guide: B1 guide with T31A, C45T, G48A, A59T, T70A, G72A, C86T
modifications: listed as DNA, chemistry not fully specified
In the case of B21, the Mean relative activity in the series on K562 CRISPRi cells [2] (setting [3]) came out at 0.9728.

B22: cr131 (nucleic acid)
guide: B1 guide with T31A, A65G, C76A, G82T
modifications: chemistry not given here
In turn, B22 displayed a Mean relative activity in the series with K562 CRISPRi cells [2] (setting [3]) of 0.96.

B23: cr831 (nucleic acid)
guide: B1 guide with T31A, C60T, G69A
modifications: listed as DNA, chemistry not fully specified
On to B23, for which the Mean relative activity in the series with K562 CRISPRi cells [2] (setting [3]) turned out to be 0.962.

B24: cr372 (nucleic acid)
guide: B1 guide with T31A, T46G
modifications: listed as DNA, chemistry not fully specified
The molecule B24 displayed a Mean relative activity with K562 CRISPRi cells [2] (setting [3]) of 0.9545.

B25: cr306 (nucleic acid)
guide: B1 guide with T31A, A47T, A78T
modifications: listed as DNA, chemistry not fully specified
The molecule B25 gave a Mean relative activity with K562 CRISPRi cells [2] (setting [3]) of 0.9647.

B26: cr161 (nucleic acid)
guide: B1 guide with T31A, A66C, G79C
modifications: listed as DNA, chemistry not fully specified
Molecule B26 came in with a Mean relative activity in the series with K562 CRISPRi cells [2] (setting [3]) of 0.9671.

B27: cr299 (nucleic acid)
guide: B1 guide with T31A, A64G, A65G
modifications: listed as DNA, chemistry not fully specified
Turning to B27, in the series with K562 CRISPRi cells [2] (setting [3]), the Mean relative activity is 0.9718.
